# Assay results as given in patent US20250002938A1 (FRANCIS CRICK INSTITUTE, published 2025).
# Changes are numbered by the printed parent chain. Numbers in names are those of the source.
# T1: AAV1(Asp590Cys) virus particle (AAV1)
# T1 construct: Assembled particle of VP1, VP2 and VP3, all carrying the mutation; also called AAV1Cys; AAV1 Asp590Cys virions
# T1 chain: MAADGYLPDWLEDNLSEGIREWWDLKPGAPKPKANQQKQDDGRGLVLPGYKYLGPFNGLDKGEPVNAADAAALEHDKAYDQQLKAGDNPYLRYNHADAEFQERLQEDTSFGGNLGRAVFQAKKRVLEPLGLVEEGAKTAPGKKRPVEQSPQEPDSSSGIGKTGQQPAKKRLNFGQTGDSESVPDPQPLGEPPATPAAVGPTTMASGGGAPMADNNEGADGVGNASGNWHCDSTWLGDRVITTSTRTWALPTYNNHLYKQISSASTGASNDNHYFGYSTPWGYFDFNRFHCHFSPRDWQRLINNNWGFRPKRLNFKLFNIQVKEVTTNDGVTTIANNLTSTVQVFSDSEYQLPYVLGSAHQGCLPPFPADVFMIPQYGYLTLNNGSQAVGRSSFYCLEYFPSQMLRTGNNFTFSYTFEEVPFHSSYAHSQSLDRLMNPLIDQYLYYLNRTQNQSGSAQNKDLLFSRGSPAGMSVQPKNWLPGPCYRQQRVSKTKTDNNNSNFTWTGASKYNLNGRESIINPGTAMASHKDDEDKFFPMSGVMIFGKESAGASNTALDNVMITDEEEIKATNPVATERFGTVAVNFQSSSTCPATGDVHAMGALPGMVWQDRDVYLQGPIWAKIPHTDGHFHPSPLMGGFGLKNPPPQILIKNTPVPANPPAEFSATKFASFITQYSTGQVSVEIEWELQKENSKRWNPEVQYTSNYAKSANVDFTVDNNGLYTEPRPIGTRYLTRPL
# T2: PKD2 domain of AAVR, wild type (Pongo abelii (Sumatran orangutan) …, UniProt Q5RFR6 409-498)
# T2 construct: also called PKD2 wild type
# T2 sequence: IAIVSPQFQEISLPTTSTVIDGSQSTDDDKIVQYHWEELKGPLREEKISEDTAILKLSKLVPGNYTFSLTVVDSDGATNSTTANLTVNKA
# B1: msfGFP fused to PKD2(Ser425Cys) (other)
# chain: T2 sequence with S17C
# notes: also called monomeric variant of super folder GFP adaptor protein; not shown: monomeric variant of super folder GFP (msfGFP)
# B2: sfGFP-PKD2 fusion protein (wild type PKD2) (other)
# chain: T2 sequence
# notes: also called sfGFP-PKD2 adaptor protein; PKD2WT; not shown: superfolder GFP (sfGFP)
# B3: sfGFP-PKD2(Ser425Cys) adaptor fusion protein (other)
# chain: T2 sequence with S17C
# notes: On the virus it forms the AAV1(Asp590Cys)<>sfGFP CAR-V; also called PKD2Cys; sfGFP-PKD2(Ser425Cys) fusion polypeptide; not shown: superfolder GFP (sfGFP)
# B4: AAV1 wildtype capsid (virus particle) (other)
# chain: T1 chain with C590D
# notes: Assembled virus particle: 60 monomers of VP1, VP2 and VP3 at about 1:1:10; VP2 and VP3 are N-terminally shorter forms of the same entry; also called AAV1WT; AAV1 capsid
# B5: superfolder GFP fused to PKD2(Ser425Cys-Val480Glu) (other)
# chain: T2 sequence with S17C, V72E
# notes: also called sfGFP-PKD2(Ser425Cys-Val480Glu); not shown: superfolder GFP
# B6: PKD2(V480E) mutant (receptor)
# chain: T2 sequence with V72E
# notes: also called PKD2(V480E) variant of AAVR; Val480Glu mutation
# B7: superfolder GFP fused to PKD1(Ser356Cys) (other)
# chain: SAGESVQITLPKNEVQLNAYVLQEPPKGETYTYDWQLITHPRDYCGEMEGKHSQILKLSKLTPGLYEFKVIVEGQNAHGEGYVNVTVKPE
# notes: also called PKD1^S356C-derived AP; adaptor protein (38.2 kDa); not shown: superfolder GFP
# Columns and labels:
# [1] = biological target: T1, AAV1(Asp590Cys) virus particle; test: non-reducing Coomassie SDS-PAGE, covalent coupling of the PKD2(Ser425Cys) fusion with AAV1 D590C
# [2] = biological target: T3, AAV2 wildtype virus particle (AAV2, UniProt P03135 1-735); test: SPR; AAV2 virus amine-coupled on a CM3 chip, increasing concentrations of the fusion protein
# T3 construct: Assembled particle of VP1, VP2 and VP3; The virus for SPR was commercially sourced; also called AAV2 wt
# [3] = biological target: T1, AAV1(Asp590Cys) virus particle; test: SDS-PAGE of the mixtures, non-reducing (top, bottom left) and reducing with βME (bottom right); shows disulfide-linked adducts only
# [4] = biological target: B2; test: SPR; AAV1 virus amine-coupled on a CM3 chip, increasing concentrations of the fusion protein
# [5] = biological target: T2, PKD2 domain of AAVR, wild type; test: response-concentration plot on AAV1 capsid; method not named; PKD2 wild type
# [6] = biological target: T1, AAV1(Asp590Cys) virus particle; test: anti-VP1/2/3 immunoblot of a non-reducing gel, coupling at 3 µM adaptor in 1 mM TCEP
# [7] = biological target: T4, AAV2(Gln589Cys) virus particle (AAV2, UniProt P03135 1-735); test: anti-VP1/2/3 immunoblot of a non-reducing gel, coupling at 5 µM adaptor
# T4 construct: Assembled particle of VP1, VP2 and VP3
# [8] = biological target: B4; test: response-concentration plot on AAV1 capsid; method not named; PKD2(V480E) mutant
# [9] = biological target: T5, AAV5(Gln697Cys) virus particle (AAV5); test: anti-VP1/2/3 immunoblot of a non-reducing gel, coupling at 10 µM adaptor
# T5 construct: Assembled particle of VP1, VP2 and VP3; also called AAV5^Q697C
binder,measurement,setting,value
B1,binding result,[1],binds
B2,Kd,[2],~6 µM
B3,binding result,[3],binds
B4,Kd,[4],~2 µM
same,Kd,[5],12.2 µM
B5,binding result,[6],binds
same,binding result,[7],binds
B6,Kd,[8],6.13 µM
B7,binding result,[9],binds
